Publication PMC9838835 (PLOS ONE, 2023)

Target: the molecule itself
Test: native gel or EMSA

B1: Human butyrylcholinesterase (enzyme, UniProt P06276 29-602, looked up)
chain: EDDIIIATKNGKVRGMNLTVFGGTVTAFLGIPYAQPPLGRLRFKKPQSLTKWSDIWNATKYANSCCQNIDQSFPGFHGSEMWNPNTDLSEDCLYLNVWIPAPKPKNATVLIWIYGGGFQTGTSSLHVYDGKFLARVERVIVVSMNYRVGALGFLALPGNPEAPGNMGLFDQQLALQWVQKNIAAFGGNPKSVTLFGESAGAASVSLHLLSPGSHSLFTRAILQSGSFNAPWAVTSLYEARNRTLNLAKLTGCSRENETEIIKCLRNKDPQEILLNEAFVVPYGTPLSVNFGPTVDGDFLTDMPDILLELGQFKKTQILVGVNKDEGTAFLVYGAPGFSKDNNSIITRKEFQEGLKIFFPGVSEFGKESILFHYTDWVDDQRPENYREALGDVVGDYNFICPALEFTKKFSEWGNNAFFYYFEHRSSKLPWPEWMGVMHGYEIEFVFGLPLERRDNYTKAEEILSRSIVKRWANFAKYGNPNETQNNSTSWPVFKSTEQKYLTLNTESTRIMTKLRAQQCRFWTSFFPKVLEMTGNIDEAEWEWKAGFHRWNNYMMDWKNQFNDYTSKKESCVGL
notes: also called BChE; C4 (tetramer)
B1 was tested. Which “stoichiometry N” value did it give?
The value was 4.
